From IntAct's records for PubMed 31515488

B1: Protein sprouty homolog 1 (Homo sapiens), O43609 (parent)
chain: MDPQNQHGSGSSLVVIQQPSLDSRQRLDYEREIQPTAILSLDQIKAIRGSNEYTEGPSVVKRPAPRTAPRQEKHERTHEIIPINVNNNYEHRHTSHLGHAVLPSNARGPILSRSTSTGSAASSGSNSSASSEQGLLGRSPPTRPVPGHRSERAIRTQPKQLIVDDLKGSLKEDLTQHKFICEQCGKCKCGECTAPRTLPSCLACNRQCLCSAESMVEYGTCMCLVKGIFYHCSNDDEGDSYSDNPCSCSQSHCCSRYLCMGAMSLFLPCLLCYPPAKGCLKLCRRCYDWIHRPGCRCKNSNTVYCKLESCPSRGQGKPS
B2: Four and a half LIM domains protein 3 (Homo sapiens), Q13643 (parent)
chain: MSESFDCAKCNESLYGRKYIQTDSGPYCVPCYDNTFANTCAECQQLIGHDSRELFYEDRHFHEGCFRCCRCQRSLADEPFTCQDSELLCNDCYCSAFSSQCSACGETVMPGSRKLEYGGQTWHEHCFLCSGCEQPLGSRSFVPDKGAHYCVPCYENKFAPRCARCSKTLTQGGVTYRDQPWHRECLVCTGCQTPLAGQQFTSRDEDPYCVACFGELFAPKCSSCKRPIVGLGGGKYVSFEDRHWHHNCFSCARCSTSLVGQGFVPDGDQVLCQGCSQAGP
partner: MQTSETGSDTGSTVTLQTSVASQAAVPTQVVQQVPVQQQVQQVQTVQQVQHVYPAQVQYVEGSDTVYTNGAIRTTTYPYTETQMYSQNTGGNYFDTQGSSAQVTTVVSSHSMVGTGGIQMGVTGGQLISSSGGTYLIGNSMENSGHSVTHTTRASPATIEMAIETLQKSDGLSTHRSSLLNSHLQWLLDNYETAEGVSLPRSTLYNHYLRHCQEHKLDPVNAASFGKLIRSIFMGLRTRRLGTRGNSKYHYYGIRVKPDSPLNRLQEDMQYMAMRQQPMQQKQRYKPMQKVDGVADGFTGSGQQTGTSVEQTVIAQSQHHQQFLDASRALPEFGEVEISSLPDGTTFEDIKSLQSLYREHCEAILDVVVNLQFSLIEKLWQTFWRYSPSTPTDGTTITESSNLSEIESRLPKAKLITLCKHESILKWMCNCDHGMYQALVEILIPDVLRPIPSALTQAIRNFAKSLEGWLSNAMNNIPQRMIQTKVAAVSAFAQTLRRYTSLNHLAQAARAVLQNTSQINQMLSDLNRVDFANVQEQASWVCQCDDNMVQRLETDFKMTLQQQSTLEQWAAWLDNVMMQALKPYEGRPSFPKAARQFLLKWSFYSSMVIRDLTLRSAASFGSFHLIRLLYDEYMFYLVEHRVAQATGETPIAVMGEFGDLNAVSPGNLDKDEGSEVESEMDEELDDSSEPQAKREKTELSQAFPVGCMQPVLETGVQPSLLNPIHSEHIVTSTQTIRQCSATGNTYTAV
B3: E3 ubiquitin-protein ligase CHIP (Homo sapiens), Q9UNE7 (parent)
chain: MKGKEEKEGGARLGAGGGSPEKSPSAQELKEQGNRLFVGRKYPEAAACYGRAITRNPLVAVYYTNRALCYLKMQQHEQALADCRRALELDGQSVKAHFFLGQCQLEMESYDEAIANLQRAYSLAKEQRLNFGDDIPSALRIAKKKRWNSIEERRIHQESELHSYLSRLIAAERERELEECQRNHEGDEDDSHVRAQQACIEAKHDKYMADMDELFSQVDEKRKKRDIPDYLCGKISFELMREPCITPSGITYDRKDIEEHLQRVGHFDPVTRSPLTQEQLIPNLAMKEVIDAFISENGWVEDY
B4: Radial spoke head 1 homolog (Homo sapiens), Q8WYR4 (parent)
chain: MSDLGSEELEEEGENDIGEYEGGRNEAGERHGRGRARLPNGDTYEGSYEFGKRHGQGIYKFKNGARYIGEYVRNKKHGQGTFIYPDGSRYEGEWANDLRHGHGVYYYINNDTYTGEWFAHQRHGQGTYLYAETGSKYVGTWVNGQQEGTAELIHLNHRYQGKFLNKNPVGPGKYVFDVGCEQHGEYRLTDMERGEEEEEEELVTVVPKWKATQITELALWTPTLPKKPTSTDGPGQDAPGAESAGEPGEEAQALLEGFEGEMDMRPGDEDADVLREESREYDQEEFRYDMDEGNINSEEEETRQSDLQD
partner: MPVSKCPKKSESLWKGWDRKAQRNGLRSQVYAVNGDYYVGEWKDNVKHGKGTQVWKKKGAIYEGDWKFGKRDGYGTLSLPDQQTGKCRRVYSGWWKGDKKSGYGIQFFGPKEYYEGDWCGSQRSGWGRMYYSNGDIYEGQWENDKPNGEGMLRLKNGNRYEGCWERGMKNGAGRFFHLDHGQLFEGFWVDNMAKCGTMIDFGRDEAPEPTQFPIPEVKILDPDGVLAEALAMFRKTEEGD
B5: Homeobox protein VENTX (Homo sapiens), O95231 (parent)
chain: MRLSSSPPRGPQQLSSFGSVDWLSQSSCSGPTHTPRPADFSLGSLPGPGQTSGAREPPQAVSIKEAAGSSNLPAPERTMAGLSKEPNTLRAPRVRTAFTMEQVRTLEGVFQHHQYLSPLERKRLAREMQLSEVQIKTWFQNRRMKHKRQMQDPQLHSPFSGSLHAPPAFYSTSSGLANGLQLLCPWAPLSGPQALMLPPGSFWGLCQVAQEALASAGASCCGQPLASHPPTPGRPSLGPALSTGPRGLCAMPQTGDAF
B6: Spermatogenesis-associated protein 2 (Homo sapiens), Q9UM82 (parent)
chain: MGKPSSMDTKFKDDLFRKYVQFHESKVDTTTSRQRPGSDECLRVAASTLLSLHKVDPFYRFRLIQFYEVVESSLRSLSSSSLRALHGAFSMLETVGINLFLYPWKKEFRSIKTYTGPFVYYVKSTLLEEDIRAILSCMGYTPELGTAYKLRELVETLQVKMVSFELFLAKVECEQMLEIHSQVKDKGYSELDIVSERKSSAEDVRGCSDALRRRAEGREHLTASMSRVALQKSASERAAKDYYKPRVTKPSRSVDAYDSYWESRKPPLKASLSLRKEPVATDVGDDLKDEIIRPSPSLLTMASSPHGSPDVLPPASPSNGPALLRGTYFSTQDDVDLYTDSEPRATYRRQDALRPDVWLLRNDAHSLYHKRSPPAKESALSKCQSCGLSCSSSLCQRCDSLLTCPPASKPSAFPSKASTHDSLAHGASLREKYPGQTQGLDRLPHLHSKSKPSTTPTSRCGFCNRPGATNTCTQCSKVSCDACLSAYHYDPCYKKSELHKFMPNNQLNYKSTQLSHLVYR
partner: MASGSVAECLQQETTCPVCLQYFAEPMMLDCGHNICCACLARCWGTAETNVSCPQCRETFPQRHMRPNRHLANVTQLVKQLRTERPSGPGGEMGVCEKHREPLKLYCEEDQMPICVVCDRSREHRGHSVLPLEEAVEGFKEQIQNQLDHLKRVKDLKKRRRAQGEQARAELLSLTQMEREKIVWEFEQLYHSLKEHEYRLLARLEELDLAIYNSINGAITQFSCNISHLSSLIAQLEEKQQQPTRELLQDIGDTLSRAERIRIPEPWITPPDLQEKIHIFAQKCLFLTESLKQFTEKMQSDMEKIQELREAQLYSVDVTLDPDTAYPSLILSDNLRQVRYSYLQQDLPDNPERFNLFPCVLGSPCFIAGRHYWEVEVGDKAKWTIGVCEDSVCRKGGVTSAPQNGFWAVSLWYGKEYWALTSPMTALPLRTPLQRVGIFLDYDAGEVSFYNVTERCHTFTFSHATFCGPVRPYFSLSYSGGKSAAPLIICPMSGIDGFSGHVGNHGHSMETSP
B7: Keratin, type I cytoskeletal 13 (Homo sapiens), P13646 (parent)
chain: MSLRLQSSSASYGGGFGGGSCQLGGGRGVSTCSTRFVSGGSAGGYGGGVSCGFGGGAGSGFGGGYGGGLGGGYGGGLGGGFGGGFAGGFVDFGACDGGLLTGNEKITMQNLNDRLASYLEKVRALEEANADLEVKIRDWHLKQSPASPERDYSPYYKTIEELRDKILTATIENNRVILEIDNARLAADDFRLKYENELALRQSVEADINGLRRVLDELTLSKTDLEMQIESLNEELAYMKKNHEEEMKEFSNQVVGQVNVEMDATPGIDLTRVLAEMREQYEAMAERNRRDAEEWFHTKSAELNKEVSTNTAMIQTSKTEITELRRTLQGLEIELQSQLSMKAGLENTVAETECRYALQLQQIQGLISSIEAQLSELRSEMECQNQEYKMLLDIKTRLEQEIATYRSLLEGQDAKMIGFPSSAGSVSPRSTSVTTTSSASVTTTSNASGRRTSDVRRP
partner: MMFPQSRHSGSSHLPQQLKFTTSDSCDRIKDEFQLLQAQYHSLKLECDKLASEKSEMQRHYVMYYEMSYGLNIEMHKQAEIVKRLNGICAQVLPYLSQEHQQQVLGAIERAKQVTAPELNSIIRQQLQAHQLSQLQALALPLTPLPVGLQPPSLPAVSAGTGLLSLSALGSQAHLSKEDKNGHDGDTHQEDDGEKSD
B8: Notch homolog 2 N-terminal-like protein A (Homo sapiens), Q7Z3S9 (parent)
chain: MCVTYHNGTGYCKCPEGFLGEYCQHRDPCEKNRCQNGGTCVAQAMLGKATCRCASGFTGEDCQYSTSHPCFVSRPCLNGGTCHMLSRDTYECTCQVGFTGKECQWTDACLSHPCANGSTCTTVANQFSCKCLTGFTGQKCETDVNECDIPGHCQHGGTCLNLPGSYQCQCLQGFTGQYCDSLYVPCAPSPCVNGGTCRQTGDFTFECNCLPETVRRGTELWERDREVWNGKEHDEN
partner: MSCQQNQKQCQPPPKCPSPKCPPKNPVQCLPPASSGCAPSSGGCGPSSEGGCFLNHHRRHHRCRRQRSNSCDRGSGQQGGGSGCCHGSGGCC
B9: Syntenin-2 (Homo sapiens), Q9H190 (parent)
chain: MSSLYPSLEDLKVDQAIQAQVRASPKMPALPVQATAISPPPVLYPNLAELENYMGLSLSSQEVQESLLQIPEGDSTAVSGPGPGQMVAPVTGYSLGVRRAEIKPGVREIHLCKDERGKTGLRLRKVDQGLFVQLVQANTPASLVGLRFGDQLLQIDGRDCAGWSSHKAHQVVKKASGDKIVVVVRDRPFQRTVTMHKDSMGHVGFVIKKGKIVSLVKGSSAARNGLLTNHYVCEVDGQNVIGLKDKKIMEILATAGNVVTLTIIPSVIYEHMVKKLPPVLLHHTMDHSIPDA
partner: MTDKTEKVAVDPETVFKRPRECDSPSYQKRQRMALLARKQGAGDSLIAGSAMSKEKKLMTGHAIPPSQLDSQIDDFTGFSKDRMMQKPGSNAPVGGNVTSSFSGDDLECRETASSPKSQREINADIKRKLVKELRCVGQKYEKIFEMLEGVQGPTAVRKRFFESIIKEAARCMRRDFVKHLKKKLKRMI

Variants of: B1
Conditions: with nt2na_human NOTCH2NLA

Row | effect of a mutation on the interaction | Variant
1 | with no effect | R24H
2 | with no effect | R296K
3 | with no effect | A37T

Variants of: B1
Conditions: with otx1_human OTX1, P32242
Chain of otx1_human OTX1, P32242 (P32242 whole entry): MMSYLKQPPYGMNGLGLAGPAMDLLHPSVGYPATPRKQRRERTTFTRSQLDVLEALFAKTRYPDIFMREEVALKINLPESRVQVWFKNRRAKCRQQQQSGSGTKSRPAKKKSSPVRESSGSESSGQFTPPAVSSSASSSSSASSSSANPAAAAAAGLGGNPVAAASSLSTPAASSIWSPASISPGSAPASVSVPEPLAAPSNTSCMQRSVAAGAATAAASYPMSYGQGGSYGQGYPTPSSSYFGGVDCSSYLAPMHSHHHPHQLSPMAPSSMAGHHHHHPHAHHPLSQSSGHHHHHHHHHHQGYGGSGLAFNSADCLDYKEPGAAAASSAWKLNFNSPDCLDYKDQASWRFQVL

Row | effect of a mutation on the interaction | Variant
4 | with no effect | R24H
5 | with no effect | R296K
6 | with no effect | A37T

Variants of: B1
Conditions: with meox2_human MEOX2, P50222
Chain of meox2_human MEOX2, P50222 (P50222 whole entry): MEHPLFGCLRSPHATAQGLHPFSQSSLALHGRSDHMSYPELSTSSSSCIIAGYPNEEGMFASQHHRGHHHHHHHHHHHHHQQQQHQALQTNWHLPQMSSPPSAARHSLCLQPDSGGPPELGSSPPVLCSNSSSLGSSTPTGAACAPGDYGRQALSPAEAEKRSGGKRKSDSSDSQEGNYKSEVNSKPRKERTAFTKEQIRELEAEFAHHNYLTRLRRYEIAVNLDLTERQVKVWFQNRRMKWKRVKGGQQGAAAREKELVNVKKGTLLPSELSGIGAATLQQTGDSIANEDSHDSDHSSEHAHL

Row | effect of a mutation on the interaction | Variant
7 | with no effect | R24H
8 | with no effect | R296K
9 | with no effect | A37T

Variants of: B1
Conditions: with kr101_human KRTAP10-1, P60331
Chain of kr101_human KRTAP10-1, P60331 (P60331 whole entry): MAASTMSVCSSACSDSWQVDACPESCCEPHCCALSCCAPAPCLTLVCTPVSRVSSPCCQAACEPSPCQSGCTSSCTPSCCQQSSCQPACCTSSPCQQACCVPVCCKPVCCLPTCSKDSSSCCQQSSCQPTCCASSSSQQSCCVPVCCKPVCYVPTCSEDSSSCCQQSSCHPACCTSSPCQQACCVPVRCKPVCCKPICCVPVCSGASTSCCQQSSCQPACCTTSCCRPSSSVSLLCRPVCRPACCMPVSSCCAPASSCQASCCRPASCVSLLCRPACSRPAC

Row | effect of a mutation on the interaction | Variant
10 | with no effect | R24H
11 | with no effect | R296K
12 | with no effect | A37T

Variants of: B2
Conditions: with rfx3_human RFX3, P48380

Row | effect of a mutation on the interaction | Variant
13 | with no effect | R226H

Variants of: B3
Conditions: with noe3_human OLFM3, Q96PB7
Chain of noe3_human OLFM3, Q96PB7 (Q96PB7 whole entry): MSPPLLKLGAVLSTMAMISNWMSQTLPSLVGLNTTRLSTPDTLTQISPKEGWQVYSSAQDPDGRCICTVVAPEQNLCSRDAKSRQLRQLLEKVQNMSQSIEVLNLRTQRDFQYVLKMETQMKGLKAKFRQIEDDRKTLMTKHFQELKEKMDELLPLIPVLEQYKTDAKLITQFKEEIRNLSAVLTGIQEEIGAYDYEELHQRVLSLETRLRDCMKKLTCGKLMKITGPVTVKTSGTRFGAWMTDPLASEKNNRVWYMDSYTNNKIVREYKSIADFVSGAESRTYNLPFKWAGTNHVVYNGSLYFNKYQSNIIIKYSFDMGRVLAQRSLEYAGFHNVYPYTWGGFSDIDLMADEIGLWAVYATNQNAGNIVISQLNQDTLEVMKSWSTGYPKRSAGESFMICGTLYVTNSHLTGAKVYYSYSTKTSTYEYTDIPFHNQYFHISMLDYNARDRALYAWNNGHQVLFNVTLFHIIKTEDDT

Row | Variant | effect of a mutation on the interaction
14 | Q181H | with no effect

Variants of: B4
Conditions: with morn3_human MORN3, Q6PF18

Row | effect of a mutation on the interaction | Variant
15 | with no effect | G248R
16 | with no effect | G144R

Variants of: B5
Conditions: with rbpms_human RBPMS

Row | effect of a mutation on the interaction | Variant
17 | with no effect | L42P
18 | with no effect | M251V
19 | with no effect | A226E

Variants of: B6
Conditions: with tri27_human TRIM27, P14373

Row | effect of a mutation on the interaction | Variant
20 | disrupting interaction strength | L443F

Variants of: B7
Conditions: with tle5_human TLE5, Q08117

Row | effect of a mutation on the interaction | Variant
21 | with no effect | R355H

Variants of: B8
Conditions: with lce3e_human LCE3E

Row | effect of a mutation on the interaction | Variant
22 | with no effect | R74Q
23 | with no effect | A115T

Variants of: B9
Conditions: with ct453_human CT45A3, Q8NHU0

Row | effect of a mutation on the interaction | Variant
24 | with no effect | R223C
